PMC7674511

Biological target: Pro-LC3B, Q9GZQ8
Assay: fluorescence anisotropy
Settings: chain shown with the change; FITC-labeled peptide 1 μM; read at the highest Pro-LC3B concentration plotted (about 50 μM); parent: est. 0.071; read off a plot

response: -0.002
B1: BAG6 LIR1 peptide (residues 124-143), P46379-2 Y132A; V135A (peptide)
chain: VHDRNANSAVMAGTFNLPSD
